This is an account of results in patent US7112333B1, “T cell epitopes of ryegrass pollen allergen” (Heska Corporation, priority 1994, dated 2006).

The subject of one experiment is Lol p V reactive T Cells. Nature of the experiment: T cell proliferation (tritiated thymidine) of Lol p V-primed T cell lines from grass-allergic patients. The experiment is classed as cell-based, human. The conditions noted are these: one allergic patient; results not shown. From the text: As discussed in Example 2, human T cell stimulating activity can be tested by culturing T cells obtained from an individual sensitive to Lol p V allergen, (i.e., an individual who has an IgE mediated immune response to Lol p V allergen) with a peptide derived from the allergen and determining whether proliferation of T cells occurs in response to the peptide as measured, e.g., by cellular uptake of tritiated thymidine. Stimulation indices for responses by T cells to peptides can be calculated as the maximum CPM in response to a peptide divided by the control CPM. A stimulation index (S.I.) equal to or greater than two times the background level is considered “positive”. […]
In addition, preferred peptides have a positivity index (P.I.) of at least about 60, more preferably about 100, more preferably at least about 200 and most preferably at least about 300. The positivity index for a peptide is determined by multiplying the mean T cell stimulation index by the percent of individuals, in a population of individuals sensitive to ryegrass pollen (e.g., preferably a population of at least 15 individuals, more preferably a population of at least 30 individuals or more), who have a T cell stimulation index to such peptide of at least 2.0. […]
This amount of priming antigen was determined to be optimal for the activation of T cells from most grass-allergic patients. […]

The test system of experiment [1] is human basophil mediator release. Nature of the experiment: Histamine release assay on whole blood of a ryegrass allergic individual. The experiment is classed as cell-based. Particulars: one ryegrass allergic individual; whole heparinized blood; 37° C., 30 minutes; FIG. 12. The protocol:
A histamine release assay was performed on one ryegrass allergic individual, using Lol p SPE and rLol p V as the added antigens. This assay is a measure of IgE reactivity through human basophil mediator release, and it is based on the detection of an acylated derivative of histamine using a specific monoclonal antibody (Morel, A. M. and Delaage, M. A.; 1988, J. Allergy Clin. Immunol. 82: 646–654). The reagents for this radioimmunoassay are sold as a kit by Amac Inc. (Westbrook, Me.). Whole heparinized blood drawn from a grass allergic individual and then […] aliquots were mixed with an equal amount of the grass antigens SPE and rLol p V at various concentrations or the diluent, PACM buffer (25 mM PIPES, 100 mM NaCl, 5 mM KCL, 4 mM CaCl2, 1 mM MgCl2, 0.003% HSA, pH7.3) in 1.5 ml polypropylene. The release reactions were carried out at 37° C. for 30 minutes. After this incubation the samples were centrifuged at 1500 RPM for 3 minutes and the supernatants removed. For the total histamine release, 0.1 ml of blood was added to 0.9 ml of PACM buffer, vortexed, and then boiled for 3 minutes. The samples were spun at 13000 RPM and the supernatant removed for analysis. Duplicate samples were used to measure total release. All of the supernatants are diluted 1:4 in acylation buffer and the remainder of the assay is performed according to the manufacturer's instructions.

Experiment [2] deals with human IgE. Briefly: Direct ELISA of human IgE binding to coated antigen. The protocol:
(§1) To examine the importance of Lol p V, both direct and competition ELISA assays were performed. In the direct ELISA, 100 μl of 10 μg/ml of antigen in Phosphate Buffered Saline, pH 7.4 (PBS) was used to coat Immulon II (Dynatech, Chantilly, Va.) 96 well plates for 4 hours at room temperature (RT) or overnight (O/N) at 4° C. In between each step the plates were washed 3× with PBS-T. The excess coating antigen(s) was removed and the wells blocked with 300 μl/well 0.5% gelatin +1 mg/ml PVP in PBS for 1 hour at RT. Serially diluted patient plasma or the diluent PBS+0.05% Tween^−20 was incubated in at 100 μl/well in duplicate wells overnight at 4° C. […] Plates were read on a MR7000 plate reader (Dynatech, Chantilly, Va.) with a 450 nm filter. The absorbance levels of duplicate wells were averaged. The results were graphed as absorbance vs. dilution. […] The results are plotted as the absorbance vs. the log of the concentration of competing antigen.
For the direct ELISA, wells were coated with either soluble pollen extract (SPE) of ryegrass pollen or rLol p V (purified native Lol p V may have a small amount of Lol p I; use of recombinant material assures that the IgE binding is only to Lol p V) and human IgE antibody binding to these antigens was analyzed. […]

Experiment [3] concerns human IgE. Briefly: Competition ELISA for IgE binding to ryegrass pollen SPE. The conditions noted are these: IgE source PHP-A or individual patient plasma; FIGS. 10 and 11. The procedure: as §1
In the competition assay, ELISA wells were coated with ryegrass pollen SPE and then allergic patient IgE binding was measured in the presence of competing ryegrass pollen SPE, purified native Lol p V, or rLol p V. The source of allergic IgE in this assay was PHP-A (FIG. 10) or individual patient plasma (FIG. 11). […]

The subject of another experiment is specific IgE. The conditions noted are these: immunoblotting; WO 93/04174, page 65; cited from earlier work. (In general: A western blot detects proteins with antibodies after separation by electrophoresis.)

B1: purified native Lol p V: Lol p V allergens affinity-purified from ryegrass pollen on mAb 1B9 column (protein)
chain: ADAGYTPAAAATPATPAATPAAAGGKATTDEQKLLEDVNAGFKAAVAAAANAPPADKFKIFEAAFSESSKGLLATSAAKAPGLIPKLDTAYDVAYKAAEGATPEAKYDAFVTALTEALRVIAGALEVHAVKPATEEVPAAKIPTGELQIVDKIDAAFKIAATAANAAPTNDKFTVFESAFNKALNECTGGAYETYKFIPSLEAAVKQAYAATVAAAPEVKYAVFEAALTKAITAMTQAQKAGKPAAAAATGAATVATGAATAAAGAATAAAGGYKA
modifications: non-natural residues
In the case of B1, the “T cell proliferative response of one patient” value in the experiment with Lol p V reactive T Cells is “responds well”.

B2: rLol p V: bacterially expressed recombinant Lol p V encoded by clone 12R, with His6 sequence (protein)
chain: MHHHHHHMAVQKYTVALFLAVALVAGPAASYAADAGYTPAAAATPATPAATPAAAGGKATTDEQKLLEDVNAGFKAAVAAAANAPPADKFKIFEAAFSESSKGLLATSAAKAPGLIPKLDTAYDVAYKAAEGATPEAKYDAFVTALTEALRVIAGALEVHAVKPATEEVPAAKIPTGELQIVDKIDAAFKIAATAANAAPTNDKFTVFESAFNKALNECTGGAYETYKFIPSLEAAVKQAYAATVAAAPEVKYAVFEAALTKAITAMTQAQKAGKPAAAAATGAATVATGAATAAAGAATAAAGGYKA
Turning to B2, the “T cell proliferative response of one patient” value in the experiment with Lol p V reactive T Cells is on record as “responds well”. Moreover, in experiment [1], the histamine release entry is recorded as “strong histamine release over a wide concentration range”. Also, in the experiment on human IgE [2] (IgE source PHP-A, PHP-B or four individual patients, FIGS. 6-9), the “IgE binding in direct ELISA” value is “high IgE binding”. In addition, the “IgE binding in direct ELISA (reactivity to Lol p V peptides)” value in the experiment on human IgE [2] (IgE source PHP-B, preliminary assay, FIG. 13a and 13b) is reported as “very high IgE binding”.

B3: Lol p V: major ryegrass (Lolium perenne) pollen protein allergen (protein)
chain: B2 chain
Take B3: in the experiment on human IgE [3], the “competition for IgE binding to ryegrass pollen SPE” value is reported as “significant portion of IgE against Lol p SPE is specific for Lol p V”. Moreover, the “ryegrass pollen sensitive patients possessing specific IgE antibody that bound” value in the experiment with specific IgE was 80%.
